Test results taken from patent US20120123099A1.

Experiments:
[1] = target: anti-nAChR autoantibody presented on the cell surface of hybridoma Mab35 (ATCC TIB-175); experiment: cell-based or functional assay
[2] = target: anti-nAChR autoantibody mAb35 (an autoantibody to rat nAChR), purified from supernatant of hybridoma Mab35 (ATCC TIB-175); experiment: ELISA; mAb35 immobilised at 625 ng/mL, α1-Fc added, detected with HRP-labeled anti-human Fc antibody
[3] = target: anti-nAChR autoantibody mAb35 (an autoantibody to rat nAChR), purified from supernatant of hybridoma Mab35 (ATCC TIB-175); experiment: ELISA; mAb35 immobilised at 9.8 ng/mL, α1-Fc added, detected with HRP-labeled anti-human Fc antibody
[4] = target: anti-nAChR autoantibody mAb35 (an autoantibody to rat nAChR), purified from supernatant of hybridoma Mab35 (ATCC TIB-175); experiment: ELISA; mAb35 immobilised at 2500 ng/mL, α1-Fc added, detected with HRP-labeled anti-human Fc antibody
[5] = target: anti-nAChR autoantibody mAb35 (an autoantibody to rat nAChR), purified from supernatant of hybridoma Mab35 (ATCC TIB-175); experiment: ELISA; mAb35 immobilised at 39.1 ng/mL, α1-Fc added, detected with HRP-labeled anti-human Fc antibody
[6] = target: anti-nAChR autoantibody mAb35 (an autoantibody to rat nAChR), purified from supernatant of hybridoma Mab35 (ATCC TIB-175); experiment: ELISA; mAb35 immobilised at 10000 ng/mL, α1-Fc added, detected with HRP-labeled anti-human Fc antibody
[7] = target: anti-nAChR autoantibody mAb35 (an autoantibody to rat nAChR), purified from supernatant of hybridoma Mab35 (ATCC TIB-175); experiment: ELISA; mAb35 immobilised at 156.3 ng/mL, α1-Fc added, detected with HRP-labeled anti-human Fc antibody

fusion protein α1-Fc, consisting of an N-terminal extracellular region of isoform 1 of human nAChRα1 subunit and a human antibody heavy chain Fc region (Fc fusion)
cellular cytotoxicity (%) (ADCC activity) by NK 92 effector cells on Calcein-AM-loaded hybridoma Mab35 [1]: 50%
Absorbance A450 nm [2]: 0.871 A450 nm
Absorbance A450 nm [3]: 0.505 A450 nm
Absorbance A450 nm [4]: 1.12 A450 nm
Absorbance A450 nm [5]: 0.557 A450 nm
Absorbance A450 nm [6]: 1.23 A450 nm
Absorbance A450 nm [7]: 0.659 A450 nm
